B1: Protein FD (Arabidopsis thaliana (Mouse-ear cress)), Q84JK2 (parent)
chain: MLSSAKHQRNHRLSATNKNQTLTKVSSISSSSPSSSSSSSSTSSSSPLPSQDSQAQKRSLVTMEEVWNDINLASIHHLNRHSPHPQHNHEPRFRGQNHHNQNPNSIFQDFLKGSLNQEPAPTSQTTGSAPNGDSTTVTVLYSSPFPPPATVLSLNSGAGFEFLDNQDPLVTSNSNLHTHHHLSNAHAFNTSFEALVPSSSFGKKRGQDSNEGSGNRRHKRMIKNRESAARSRARKQAYTNELELEVAHLQAENARLKRQQDQLKMAAAIQQPKKNTLQRSSTAPF

Variants of: B1
Settings: with ft_arath FT

| effect of a mutation on the interaction | Variant |
| --- | --- |
| decreasing interaction | MLSSAKHQRNHRLSATNKNQTLTKVSSISSSSPSSSSSSSSTSSSSPLPSQDSQAQKRSLVTMEEVWNDINLASIHHLNRHSPHPQHNHEPRFRGQNHHNQNPNSIFQDFLKGSLNQEPAPTSQTTGSAPNGDSTTVTVLYSSPFPPPATVLSLNSGAGFEFLDNQDPLVTSNSNLHTHHHLSNAHAFNTSFEALVPSSSFGKKRGQDSNEGSGNRRHKRMIKNRESAARSRARKQAYTNELELEVAHLQAENARLKRQQDQLKMAAAIQQPKKNTLQRSSSAPF [T282S] |
| decreasing interaction | MLSSAKHQRNHRLSATNKNQTLTKVSSISSSSPSSSSSSSSTSSSSPLPSQDSQAQKRSLVTMEEVWNDINLASIHHLNRHSPHPQHNHEPRFRGQNHHNQNPNSIFQDFLKGSLNQEPAPTSQTTGSAPNGDSTTVTVLYSSPFPPPATVLSLNSGAGFEFLDNQDPLVTSNSNLHTHHHLSNAHAFNTSFEALVPSSSFGKKRGQDSNEGSGNRRHKRMIKNRESAARSRARKQAYTNELELEVAHLQAENARLKRQQDQLKMAAAIQQPKKNTLQRSSAAPF [T282A] |

From IntAct's records for PubMed 16099979
